Laboratory results as given in publication PMC4337610.

Assays:
[1] = biological target: Hfq wild-type (Escherichia coli) (UniProt P0A6X3); test: competition; conditions: BLI: 25 mM Tris pH 7.5, 50 mM NaCl, 50 mM KCl, 1 mM MgCl2, 1 mM DTT, 0-500 nM Hfq, temperature not stated; EMSA: 1x structure buffer, 1 ug yeast RNA, 37 C …
[2] = biological target: Hfq wild-type (Escherichia coli) (UniProt P0A6X3); test: EMSA; conditions: BLI: 25 mM Tris pH 7.5, 50 mM NaCl, 50 mM KCl, 1 mM MgCl2, 1 mM DTT, 0-500 nM Hfq, temperature not stated; EMSA: 1x structure buffer, 1 ug yeast RNA, 37 C …
[3] = biological target: Hfq wild-type (Escherichia coli) (UniProt P0A6X3); test: X-ray crystallography; conditions: BLI: 25 mM Tris pH 7.5, 50 mM NaCl, 50 mM KCl, 1 mM MgCl2, 1 mM DTT, 0-500 nM Hfq, temperature not stated; EMSA: 1x structure buffer, 1 ug yeast RNA, 37 C …
Hfq66 [4] = test: BLI; conditions: 1 uM RydC; BLI: 25 mM Tris pH 7.5, 50 mM NaCl, 50 mM KCl, 1 mM MgCl2, 1 mM DTT, 0-500 nM Hfq, temperature not stated; EMSA: 1x structure buffer, 1 ug yeast RNA, 37 C …; scale: fold lower affinity than without RydC
[5] = biological target: Hfq wild-type (Escherichia coli) (UniProt P0A6X3); test: BLI; conditions: BLI: 25 mM Tris pH 7.5, 50 mM NaCl, 50 mM KCl, 1 mM MgCl2, 1 mM DTT, 0-500 nM Hfq, temperature not stated, EMSA: 1x structure buffer, 1 ug yeast RNA, 37 C …
Hfq66 [6] = biological target: Hfq66 (UniProt P0A6X3); test: BLI; conditions: BLI: 25 mM Tris pH 7.5, 50 mM NaCl, 50 mM KCl, 1 mM MgCl2, 1 mM DTT, 0-500 nM Hfq, temperature not stated; EMSA: 1x structure buffer, 1 ug yeast RNA, 37 C …
[7] = biological target: HfqRim R19A;P21A;Q33A;Q35A;T49A;R66A (UniProt P0A6X3); test: BLI; conditions: BLI: 25 mM Tris pH 7.5, 50 mM NaCl, 50 mM KCl, 1 mM MgCl2, 1 mM DTT, 0-500 nM Hfq, temperature not stated; EMSA: 1x structure buffer, 1 ug yeast RNA, 37 C …

For “GGUUCCGAUGUAGACCCGUCCUCCUUCGCCUGCGUCACGGGUCCUGGUUAGACGCAGGCGUUUUCU [RydC (EMSA transcript)]”, the binding [1] was “binds” and the binding [2] was “binds”.

With “GGCUUCCGAUGUAGACCCGUCCUCCUUCGCCUGCGUCACGGGUCCUGGUUAGACGCAGGCGUUUUCUG [RydC (crystal)]” the binding [3] was “binds”.

For cfa1, the binding signal (Hfq66 [4]) was 100 and the binding signal (fold lower affinity than without RydC) ([5]; 1 uM RydC) was 5.

With “GGUUGUUUAUAUUACGAUAAUUAUUAGGCAUUAACGGGAACCGGAGCGUUCCCGAUUCACCAUGGAUGGCCUUUUCGGCAAGGGCUCCUCCCUUCCUCUGUUCUACGUCGGAUAACUGGCUCACGGAAUUGUCCGUGGG [cfa1]” the binding (Hfq66 [6]) was “binds”, the Kd [7] was “binds” and the Kd [5] was “binds”.
